Source: paper PMC8131325 (The Journal of Biological Chemistry, 2021)

B1: αSynP130-140 (peptide)
peptide: EEGYQDYEPEA
notes: also called α-synuclein decoy peptide; C-terminal peptide of αSyn; source: synthetic peptide (SCRUM Inc or BEX Co Ltd)
B2: αSynP130-140 Y136F (peptide)
peptide: EEGYQDFEPEA
notes: source: synthetic peptide (SCRUM Inc or BEX Co Ltd)
B3: αSynP130-140 Y133F/Y136W (peptide)
peptide: EEGFQDWEPEA
notes: as for B2
B4: αSynP130-140 Y133W/Y136W (peptide)
peptide: EEGWQDWEPEA
notes: as for B2
B5: αSynP130-140 Y133F/Y136F (peptide)
peptide: EEGFQDFEPEA
notes: as for B2
B6: αSynP130-140 Y133F (peptide)
peptide: EEGFQDYEPEA
notes: as for B2
B7: αSynP130-140 Y136W (peptide)
peptide: EEGYQDWEPEA
notes: as for B2

Target: T1, fatty acid binding protein 3 (UniProt P05413 1-133)
T1 construct: synthetic gene (Invitrogen GeneArt) in pET28a between NcoI and XhoI; Untagged FABP3; also called FABP3; H-FABP; source: E. coli BLR(DE3), purified (Resource-Q anion exchange column), delipidized, lyophilized
Assay: other fluorescence titration; ANS fluorescence (5 μM ANS, emission at 460 nm) of 2 μM FABP3 with increasing concentrations of αSyn or αSynP130-140; 50 mM Tris-HCl pH 7.4
Details: both partners purified

T1 sequence (P05413 whole entry): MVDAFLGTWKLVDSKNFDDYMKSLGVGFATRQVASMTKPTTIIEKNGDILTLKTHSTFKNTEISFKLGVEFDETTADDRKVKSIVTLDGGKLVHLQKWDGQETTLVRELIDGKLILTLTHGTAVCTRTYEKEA

For B1, which “stoichiometry N” value is on record?
Its value is about 1.

Target: T2, FABP3 with N-terminal His6 tag (UniProt P05413 1-133)
T2 construct: synthetic gene (Invitrogen GeneArt) in pET28a between NdeI and XhoI; Apo (delipidized) form; held on the Ni-NTA quartz sensor by the His6 tag; also called His6-FABP3; not shown: His6, N-terminal, kept
Assay: quartz crystal microbalance (QCM); His6-FABP3 (or FABP3 F16S) immobilised on the gold-plated quartz sensor through Ni-NTA groups; αSyn, its variants or peptides added at varying concentrations; room temperature; 50 mM Tris-HCl pH 7.4; kobs = koff + kon[αSyn], Kd from kon and koff (AQUA 2.0)
Details: both partners purified

T2 sequence (P05413 whole entry): as above

Which Kd does the source give for B1 here?
The Kd was 6.1 nM.

And the koff?
Its koff is 0.0012 s⁻¹.

And the kon?
Its kon is 200000 M⁻¹ s⁻¹.

What does the source list for B2?
Kd: 7.7 nM; koff: 0.0037 s⁻¹; kon: 480000 M⁻¹ s⁻¹

Which results are given for B3?
Kd: 6.1 nM; koff: 0.0019 s⁻¹; kon: 320000 M⁻¹ s⁻¹

Which Kd does the source give for B4 here?
The Kd was 6.2 nM.

What about the koff of the same binder?
The koff was 0.0015 s⁻¹.

And the kon?
The kon was 240000 M⁻¹ s⁻¹.

Which results are given for B5?
Kd: 2.1 nM; koff: 0.0011 s⁻¹; kon: 540000 M⁻¹ s⁻¹

How did the Kd turn out when B6 was run?
The Kd was 2 nM.

And the koff?
Its koff is 0.0015 s⁻¹.

And the kon?
The kon was 750000 M⁻¹ s⁻¹.

B7 was tested. Which Kd did it give?
Its Kd is 6.3 nM.

What about the koff of the same binder?
Its koff is 0.0024 s⁻¹.

What about the kon of the same binder?
The kon was 380000 M⁻¹ s⁻¹.
